“Also recorded” adds a separate entry of the source.
B1: IFN-α1: Recombinant Interferon-α1, a type I IFN, injected intraperitoneally 3 times weekly at 10^5 IU/dose (protein, UniProt P01562 24-189, looked up)
Interferon alpha-1/13: CDLPETHSLDNRRTLMLLAQMSRISPSSCLMDRHDFGFPQEEFDGNQFQKAPAISVLHELIQQIFNLFTTKDSSAAWDEDLLDKFCTELYQQLNDLEACVMQEERVGETPLMNADSILAVKKYFRRITLYLTEKKYSPCAWEVVRAEIMRSLSLSTNLQERLRRKE

Tests used:
4T1.2 tumours [1] = test: 4T1.2 tumour bearing mice treated with poly I:C (bioluminescence imaging, Q-PCR of tumour burden); format: in vivo
Description: Mice bearing 4T1.2 cells were treated with 25 ug poly I:C 3× weekly by tail vein injection beginning at day 3. (a) Bioluminescence imaging of 4T1.2 primary tumour burden prior to surgical resection (b) Bioluminescence imaging of metastatic burden in mice treated with vehicle or poly I:C (c) Q-PCR detection of 4T1.2 tumour burden in femur, spine and lung of mice at day 33.
These techniques have previously been described by Eckhardt and colleagues (Eckhardt 2005). Briefly, mice were inoculated with 10^5 cells into the 4th mammary fatpad of female 6-8 week old Balb/c mice. Tumour volumes were monitored by caliper measurement 3 times weekly. […] Metastatic burden in secondary tissues was detected by a Q-PCR based assay using a reporter sequence inserted into the genome of the 4T1.2 cells. Survival assays were conducted in the same way except at day 22 the mice were anaesthetized using either a combination of ketamine hydrochloride (1.2 m/g of mouse)/xylaxil hydrochloride (3 μg/g of mouse) or 2.5% aerosol isoflurane in 100% oxygen and the primary tumour was surgically removed and weighed. […] At time of sacrifice, all mice had evidence of bone and lung metastasis unless otherwise stated. Anti-CD8 (clone 53-6.7, produced in house) and the control antibody rat IgG2a (clone 2A3, produced in house) were injected intraperitoneally at 50 μg per dose on days −1, 0, 1, 4, 7 and subsequently every 7 d. Rabbit anti-asialo GM1 was purchased from Wako chemicals and injected intraperitoneally according to the manufacturer's instructions.

4T1.2 tumours [2] = test: Early treatment setting after primary tumour resection: poly I:C, doxorubicin or combination (bioluminescence imaging); format: in vivo, Balb/c mice; conditions: treatment from 2 days after resection for 2 weeks; 25 ug poly I:C every 2 days, 4 mg/kg doxorubicin every 4 days; bioluminescence (FIG. 21)
Description: 4T1.2 cells were inoculated into the 4th mammary gland of Balb/c mice. Primary tumours were resected when they reached 0.2 g and 2 days later treatment was started for a period of 2 weeks. Mice were treated with vehicle alone, 25 ug poly I:C every 2 days, 4 mg/kg doxorubicin every 4 days, or the combination of poly I:C and doxorubicin. Metastatic burden was visualised in all mice at a set time point using bioluminescence imaging.

4T1.2 cells [3] = test: Real-time RT-PCR of 4T1.2 cells treated with recombinant IFN-α1; format: cell-based, mouse; conditions: 4T1.2 cells in vitro, recombinant IFN-α1 1000 IU/mL, real-time RT-PCR (FIG. 6a)
Source text: (§1) FIG. 6: The effect of type I IFN treatment on metastasis. (a) Real-time RT-PCR analysis of 4T1.2 cells treated with […] recombinant IFN-α1. (n=3, * p<0.05, error bars are S.E.M.). (b) Proliferation of 4T1.2 cells treated with 1000 IU/mL of recombinant […]. (n=6, error bars are S.E.M.). (c) Primary tumour volume, n=15. (d) Q-PCR detection of metastatic 4T1.2 tumour burden in spine (at day 33 post tumour cell inoculation) of mice treated with IFNα1 or vehicle. (e) H&E stained sections of spines and femurs from 4T1.2 bearing mice treated with IFN-α1 or vehicle (Scale bar=50 T=Tumour). (f) Kaplan-Meier disease-free survival analysis of mice bearing 4T1.2 tumours that were subsequently resected. Mice were treated with 10^5 IU of recombinant IFN-α1 or saline from day 3. (n=15).
66cl4 and 4T1 cell lines were kindly provided by Dr. Fred Miller (Karmanos Cancer Institute, Detroit, Mich.). Derivation of the 4T1.2 line has previously been described (Eckhardt et al. 2005, supra; Lelekakis et al. 1999, supra). Recombinant Interferon-α1 was used at a dose of 1000 IU/mL. Interferon-α receptor blocking antibody (MAR1-5A3) was used at a concentration of 10 μg/mL (Leinco, St Louis, Mo.). G-CSF ELISA was performed according to manufacturer's instructions (R&D Systems, Minneapolis, Minn., USA). Flow cytometry was performed using standard techniques. MDSCs were assessed using Ly6G (clone IA8) and CD11b (clone M1/70) specific antibodies (BD Pharmingen, Franklin Lakes, N.J., USA) at a dilution of 1:200. Flow Cytometry was performed using an LSR-II (BD Pharmingen, San Jose, Calif.). Real-time RT-PCR was performed using standard techniques. In vitro proliferation was assessed using a sulforhodamine B binding assay as previously described (Eckhardt et al. 2005, supra). […]
Expression level of each gene was calculated based on the cycle threshold (CT), set within the linear range of DNA amplification. Expression level (arbitrary units) was calculated as relative transcript abundance (RTA) by: RTA=10000/(2^ΔCT), where ΔCT=CT (gene of interest)−CT(GAPDH).

4T1.2 cells [4] = test: In vitro proliferation of 4T1.2 cells (sulforhodamine B binding assay); format: cell-based, mouse; conditions: 1000 IU/mL recombinant IFN-α1 (FIG. 6b)
Source text: as §1
66cl4 and 4T1 cell lines were kindly provided by Dr. Fred Miller (Karmanos Cancer Institute, Detroit, Mich.). Derivation of the 4T1.2 line has previously been described (Eckhardt et al. 2005, supra; Lelekakis et al. 1999, supra). Recombinant Interferon-α1 was used at a dose of 1000 IU/mL. […] MDSCs were assessed using Ly6G (clone IA8) and CD11b (clone M1/70) specific antibodies (BD Pharmingen, Franklin Lakes, N.J., USA) at a dilution of 1:200. […] In vitro proliferation was assessed using a sulforhodamine B binding assay as previously described (Eckhardt et al. 2005, supra). […]

4T1.2 tumours [5] = test: Mouse metastasis assay, 4T1.2 mammary tumours, IFN-α1 treatment; format: in vivo, Balb/c mice
Source text: as §1
Female Balb/c mice (6-8 weeks old) were obtained from ARC (Perth, WA, Australia) or Walter and Eliza Hall Institute (Kew, Vic, Australia) breeding facilities. Female NSG mice were obtained from WEHI breeding facility under license from The Jackson Laboratory and Balb/c Ifnar1^−/− (Hwang et al. 1995, supra) were bred in-house. Recombinant IFN-α1 was injected intraperitoneally 3 times weekly at a dose of 10^5 IU/dose. All other mouse assays were performed using standard techniques. Metastasis was assessed using a previously described assay (Eckhardt et al. 2005, supra). Mouse investigations were performed with the approval of the Peter MacCallum Animal Ethics Experimentation Committee.
(§2) These techniques have previously been described by Eckhardt and colleagues (Eckhardt 2005). Briefly, mice were inoculated with 10^5 cells into the 4th mammary fatpad of female 6-8 week old Balb/c mice. Tumour volumes were monitored by caliper measurement 3 times weekly. […] Metastatic burden in secondary tissues was detected by a Q-PCR based assay using a reporter sequence inserted into the genome of the 4T1.2 cells. […]

4T1.2 tumours [6] = test: Metastasis-free survival assay with primary tumour resection, IFN-α1 treatment; format: in vivo, Balb/c mice
Source text: as §1
Female Balb/c mice (6-8 weeks old) were obtained from ARC (Perth, WA, Australia) or Walter and Eliza Hall Institute (Kew, Vic, Australia) breeding facilities. […] Metastasis was assessed using a previously described assay (Eckhardt et al. 2005, supra). […]
as §2, with “Briefly, mice were inoculated with 10^5 cells into the 4th mammary fatpad of female 6-8 week old Balb/c mice.” left out

[7] = tested on: 4T1.2 tumour bearing mice; test: Immune cell populations (flow cytometry) and G-CSF (ELISA) in 4T1.2 tumour bearing mice treated with IFN-α1; format: in vivo, Balb/c mice
Description: FIG. 18: Measurement of MDSC and G-CSF in blood of 4T1.2 tumour bearing mice treated with IFNα1. Mice were treated with IFN-al or saline control one day after 4T1.2 tumour cell inoculation into the mammary gland. Five days after tumour inoculation, MDSC percentage (a) and absolute numbers (b) were measured, along with G-CSF levels by ELISA (c).
FIG. 19: Changes in immune cells in the mammary gland, lung and bone. a) Mice were treated with IFN-α1 or saline control on day 1, 3 and 5 after 4T1.2 tumour cell inoculation into the mammary gland. Ten days after tumour inoculation MDSC, NK, CD4^+ and CD8^+ T cell percentages were measured in fatpad/primary tumour, lung and bone marrow. N=5. Difference between treatment groups was assessed using an unpaired T test and significance is indicated. b) Cells isolated from the mammary gland, lung and bone marrow of naïve Balb/c mice were stained for DX5, TCR, CD11b and CD27. Shown are representative profiles for CD11b and CD27 expression on gated DX5^+TCR. Percentage of CD11b^low/high and/or CD27^low/high are indicated.
66cl4 and 4T1 cell lines were kindly provided by Dr. Fred Miller (Karmanos Cancer Institute, Detroit, Mich.). Derivation of the 4T1.2 line has previously been described (Eckhardt et al. 2005, supra; Lelekakis et al. 1999, supra). Recombinant Interferon-α1 was used at a dose of 1000 IU/mL. Interferon-α receptor blocking antibody (MAR1-5A3) was used at a concentration of 10 μg/mL (Leinco, St Louis, Mo.). G-CSF ELISA was performed according to manufacturer's instructions (R&D Systems, Minneapolis, Minn., USA). Flow cytometry was performed using standard techniques. MDSCs were assessed using Ly6G (clone IA8) and CD11b (clone M1/70) specific antibodies (BD Pharmingen, Franklin Lakes, N.J., USA) at a dilution of 1:200. Flow Cytometry was performed using an LSR-II (BD Pharmingen, San Jose, Calif.). Real-time RT-PCR was performed using standard techniques. In vitro proliferation was assessed using a sulforhodamine B binding assay as previously described (Eckhardt et al. 2005, supra). Immunohistochemistry was performed using standard techniques, using α-mouse Irf7 (Zymed/Invitrogen, Carlsbad, Calif., USA) α-human Irf7 (BD Pharmingen, Franklin Lakes, N.J., USA) at a concentration of 5 μg/mL.

[8] = IFN-α1 on day 1, 3 and 5, measured ten days after tumour inoculation (FIG. 19a)

Molecule | primary tumour growth (4T1.2 tumours [1]; 25 ug poly I:C 3x weekly by tail vein injection from day 3, bioluminescence imaging (FIG. 20a)) | metastatic burden in lung and bone (4T1.2 tumours [1]; 25 ug poly I:C 3x weekly, PCR detection of tumour cell markers at day 33 (FIG. 20c)) | metastasis to multiple organs (4T1.2 tumours [1]; 25 ug poly I:C 3x weekly, bioluminescence after primary tumour resection (FIG. 20b)) | metastasis at end point (4T1.2 tumours [2]) | expression of Irf7 (4T1.2 cells [3]) | expression of Irf9 (4T1.2 cells [3]) | expression of STAT1 (4T1.2 cells [3]) | 4T1.2 cell proliferation in vitro (4T1.2 cells [4]) | metastasis to the spine and femur (4T1.2 tumours [5]; 10^5 IU/dose i.p. 3 times weekly, Q-PCR at day 33 and H&E, vs vehicle, P<0.007 (FIG. 6d, e)) | extent of metastasis to lung (4T1.2 tumours [5]; 10^5 IU/dose i.p. 3 times weekly, Q-PCR, endpoint day 33 (FIG. 17)) | primary tumour growth in vivo (4T1.2 tumours [5]; 10^5 IU/dose intraperitoneally 3 times weekly (FIG. 6c)) | metastasis-free survival (4T1.2 tumours [6]; 10^5 IU recombinant IFN-α1 or saline for five weeks, primary tumour resection at 3 weeks (FIG. 6f)) | growth of primary tumours (4T1.2 tumours [6]; survival study, treatment for five weeks, primary tumour resection at 3 weeks) | G-CSF levels in the peripheral blood ([7]; 4T1.2 tumour bearing mice, IFN-α1 vs saline, ELISA (FIG. 18c)) | MDSC accumulation in the peripheral blood ([7]; 4T1.2 tumour bearing mice, IFN-α1 vs saline, five days after tumour inoculation (FIG. 18), listed as IFN) | CD11b+Ly6G+ MDSC in the bone marrow [7, 8] | NK cells at the primary site or in lungs [7, 8] | NK cells in the bone marrow [7, 8]
poly I:C | did not alter | significant decrease | suppressed metastasis to multiple organs; also recorded: suppresses metastasis | did not significantly impact metastasis | – | – | – | – | – | – | – | – | – | – | – | – | – | –
COc1cccc2c1C(=O)c1c(O)c3c(c(O)c1C2=O)C[C@@](O)(C(=O)CO)C[C@@H]3O[C@H]1C[C@H](N)[C@H](O)[C@H](C)O1 [doxorubicin] | – | – | – | did not significantly impact metastasis | – | – | – | – | – | – | – | – | – | – | – | – | – | –
B1 | – | – | – | – | increased expression | increased expression | increased expression | did not affect | significantly reduced metastasis to the spine and femur to undetectable levels | not reduced | did not affect | significant extension | no effect | decreased | significantly decreased | significantly decreased | not observed | significantly increased
